Data taken from PMC11847078.

Key:
CD4-Nav1.6-CTD-NLuc = CD4-Nav1.6-CTD-NLuc (UniProt Q9UQD0); assay: split reporter (BiFC, NanoBiT); in-cell split-luciferase complementation assay (LCA); HEK293 cells transiently cotransfected with CD4-Nav1.6-CTD-NLuc and CLuc-GSK3β or a mutant; D-luciferin, 37 °C; peak luminescence as percent of the per-plate control; in one set cells treated with vehicle (0.5% DMSO) or 2 μM CHIR99021 for 1 h before the read-out
GSK3β = GSK3β (UniProt P49841); assay: split-luciferase complementation assay in HEK293; settings: reference: vehicle (0.5% DMSO); sites T1936

Sequence of UniProt Q9UQD0 (Q9UQD0 whole entry): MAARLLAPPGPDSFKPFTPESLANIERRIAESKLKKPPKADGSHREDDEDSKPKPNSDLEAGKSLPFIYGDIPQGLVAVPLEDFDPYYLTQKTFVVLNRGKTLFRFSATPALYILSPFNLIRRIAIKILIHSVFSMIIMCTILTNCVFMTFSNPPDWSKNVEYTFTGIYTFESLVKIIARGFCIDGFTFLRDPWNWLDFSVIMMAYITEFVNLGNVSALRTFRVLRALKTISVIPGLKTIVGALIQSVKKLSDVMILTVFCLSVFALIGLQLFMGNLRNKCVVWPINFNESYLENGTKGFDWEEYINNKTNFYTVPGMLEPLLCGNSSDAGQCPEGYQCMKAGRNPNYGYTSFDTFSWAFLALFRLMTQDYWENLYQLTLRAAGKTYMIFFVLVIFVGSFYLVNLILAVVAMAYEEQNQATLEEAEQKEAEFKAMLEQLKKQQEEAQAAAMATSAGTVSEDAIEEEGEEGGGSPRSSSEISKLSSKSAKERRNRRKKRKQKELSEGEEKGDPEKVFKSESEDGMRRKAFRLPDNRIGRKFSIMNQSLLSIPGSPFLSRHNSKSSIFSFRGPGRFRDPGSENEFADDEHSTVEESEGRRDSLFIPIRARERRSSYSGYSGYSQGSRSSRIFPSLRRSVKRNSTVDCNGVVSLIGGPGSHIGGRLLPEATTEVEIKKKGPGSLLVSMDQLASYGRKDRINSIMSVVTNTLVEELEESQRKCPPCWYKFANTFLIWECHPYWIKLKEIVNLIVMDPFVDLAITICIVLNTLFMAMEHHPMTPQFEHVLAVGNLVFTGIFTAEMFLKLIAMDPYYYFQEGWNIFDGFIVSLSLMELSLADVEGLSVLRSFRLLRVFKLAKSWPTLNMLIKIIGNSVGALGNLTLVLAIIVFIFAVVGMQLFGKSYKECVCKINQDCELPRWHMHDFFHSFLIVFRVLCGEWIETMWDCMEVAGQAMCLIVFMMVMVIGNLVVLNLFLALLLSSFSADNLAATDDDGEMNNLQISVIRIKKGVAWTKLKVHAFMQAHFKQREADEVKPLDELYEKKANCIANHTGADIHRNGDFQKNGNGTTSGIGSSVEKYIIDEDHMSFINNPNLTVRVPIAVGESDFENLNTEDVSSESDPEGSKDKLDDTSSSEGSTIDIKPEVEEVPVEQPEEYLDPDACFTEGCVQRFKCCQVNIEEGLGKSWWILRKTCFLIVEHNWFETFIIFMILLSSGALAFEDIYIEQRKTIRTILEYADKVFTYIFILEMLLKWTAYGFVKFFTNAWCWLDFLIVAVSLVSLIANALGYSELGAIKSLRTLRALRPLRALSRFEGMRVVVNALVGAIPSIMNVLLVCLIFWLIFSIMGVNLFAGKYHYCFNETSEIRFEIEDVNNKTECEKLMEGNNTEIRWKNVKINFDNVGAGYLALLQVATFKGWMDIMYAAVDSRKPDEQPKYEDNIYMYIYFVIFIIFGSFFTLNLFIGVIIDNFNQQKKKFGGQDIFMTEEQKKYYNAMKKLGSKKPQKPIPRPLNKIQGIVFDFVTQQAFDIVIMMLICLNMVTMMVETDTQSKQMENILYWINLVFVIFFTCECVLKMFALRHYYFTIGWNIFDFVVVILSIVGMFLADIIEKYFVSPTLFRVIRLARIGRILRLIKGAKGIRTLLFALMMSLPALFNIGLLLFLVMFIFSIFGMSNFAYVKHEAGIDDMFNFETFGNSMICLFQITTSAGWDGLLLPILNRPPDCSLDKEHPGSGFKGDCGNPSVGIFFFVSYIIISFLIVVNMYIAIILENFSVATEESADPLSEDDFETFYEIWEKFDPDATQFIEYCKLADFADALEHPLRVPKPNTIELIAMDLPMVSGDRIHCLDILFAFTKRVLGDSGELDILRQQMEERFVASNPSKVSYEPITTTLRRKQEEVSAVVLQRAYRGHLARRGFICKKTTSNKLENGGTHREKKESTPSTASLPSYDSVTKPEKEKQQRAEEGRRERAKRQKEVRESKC
Sequence of CLuc-GSK3β (P49841 whole entry): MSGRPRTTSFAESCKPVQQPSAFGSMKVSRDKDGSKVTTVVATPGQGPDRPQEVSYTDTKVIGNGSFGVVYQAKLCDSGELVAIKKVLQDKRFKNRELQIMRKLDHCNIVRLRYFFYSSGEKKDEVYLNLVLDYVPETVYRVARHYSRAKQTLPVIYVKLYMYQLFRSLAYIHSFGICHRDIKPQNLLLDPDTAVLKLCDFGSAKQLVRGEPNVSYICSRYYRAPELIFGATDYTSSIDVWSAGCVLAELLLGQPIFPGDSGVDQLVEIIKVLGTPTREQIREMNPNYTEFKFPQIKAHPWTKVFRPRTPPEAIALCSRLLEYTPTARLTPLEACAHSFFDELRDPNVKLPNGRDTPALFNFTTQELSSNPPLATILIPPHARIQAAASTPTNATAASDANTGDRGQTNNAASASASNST

Substance | % Lum with 2 μM CHIR99021 (relative to Nav1.6:GSK3β + DMSO) (CD4-Nav1.6-CTD-NLuc) | % Lum (luminescence relative to Nav1.6:GSK3β control) (CD4-Nav1.6-CTD-NLuc) | also measured
CLuc-GSK3β (from UniProt P49841 1-420) (enzyme) | 91.2 % Lum |  | % Lum with vehicle (0.5% DMSO; the control to which the set is normalised) (CD4-Nav1.6-CTD-NLuc): 100 % Lum
CLuc-GSK3βΔABD (from UniProt P49841 1-420) (enzyme) | 58.2 % Lum | 42 % Lum | % Lum with vehicle (0.5% DMSO) (relative to Nav1.6:GSK3β + DMSO) (CD4-Nav1.6-CTD-NLuc): 60.9 % Lum
CLuc-GSK3βΔCTD (from UniProt P49841 1-343) (domain or fragment) |  | 167 % Lum | 
Nav1.6 C-terminal domain (CTD) 2 μM CHIR99021, 1 h |  |  | other: % luminescence of WT GSK3β + DMSO control (GSK3β): same; reference 60.9 ± 3.3; percent of reference (GSK3β): same; reference 100.0 ± 4.4
